Results from JP2013172663A (dated 2013).

Target: T1, ヒト心筋由来トロポニンI (human, UniProt P19429 2-210)
T1 construct: It is not the protein on the chip; also called human cardiac troponin I; cTnI
Assay: SPR (Biacore T100), troponin I on a CM5 chip, scFv as analyte

T1 sequence (P19429 2-210 limits assumed): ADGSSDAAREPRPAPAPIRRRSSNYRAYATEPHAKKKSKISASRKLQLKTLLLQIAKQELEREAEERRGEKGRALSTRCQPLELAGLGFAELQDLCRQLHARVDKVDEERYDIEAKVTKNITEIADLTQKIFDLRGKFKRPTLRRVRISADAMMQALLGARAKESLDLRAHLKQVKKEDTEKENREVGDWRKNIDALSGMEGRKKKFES

binding result: binds
B1: 野生型scFv抗体フラグメント(配列番号:62) (scFv)
scFv: DVVLTQSPLTLSVTIGQPASISCKSSQSLLDSDGKTYLNWLLQRPGQSPKRLIYLVSKLDSGVPDRFTGSGSGTDFTLKISRVEAEDLGVYYCWQGTHFPLTFGAGTKLEIKRGGGGSGGGGSGGGGSQLQLQQSGAELVRSGASVKLSCTASGFNIKDYYMNWVKQRPEQGLEWIGWIDPANGDTAYAPRFQVKATMTADKSSNTAYLQLSSLTSEDTAVYYCNADLPMDQWGQGTSVTVSSAAALEHHHHHH
notes: also called 野生scFv抗体フラグメント; 野生型scFv抗体フラグメント
